Measurements: patent US20060270591A1, “Androgen receptor coregulators” (priority 2002, published 2006)

T1: ARA54-ARA54 interactions (Homo sapiens, UniProt Q9UBS8)
T1 construct: fl-ARA54, full-length ARA54; expressed in transfected cells; host or cells: DU145
T1 sequence (Q9UBS8 1-474): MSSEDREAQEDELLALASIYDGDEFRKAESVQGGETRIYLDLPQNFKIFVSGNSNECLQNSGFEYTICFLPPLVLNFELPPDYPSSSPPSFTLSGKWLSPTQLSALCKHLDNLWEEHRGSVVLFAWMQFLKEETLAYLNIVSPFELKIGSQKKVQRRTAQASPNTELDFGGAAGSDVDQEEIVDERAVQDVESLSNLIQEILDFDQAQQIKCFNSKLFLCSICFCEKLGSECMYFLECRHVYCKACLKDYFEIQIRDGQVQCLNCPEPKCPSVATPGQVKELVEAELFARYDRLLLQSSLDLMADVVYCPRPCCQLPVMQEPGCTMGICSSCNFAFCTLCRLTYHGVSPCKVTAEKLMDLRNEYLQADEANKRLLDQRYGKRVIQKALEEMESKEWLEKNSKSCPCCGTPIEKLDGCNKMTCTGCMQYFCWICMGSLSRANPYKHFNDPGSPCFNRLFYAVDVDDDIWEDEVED

T2: GR (Homo sapiens, UniProt P04150)
T2 sequence (P04150 1-777): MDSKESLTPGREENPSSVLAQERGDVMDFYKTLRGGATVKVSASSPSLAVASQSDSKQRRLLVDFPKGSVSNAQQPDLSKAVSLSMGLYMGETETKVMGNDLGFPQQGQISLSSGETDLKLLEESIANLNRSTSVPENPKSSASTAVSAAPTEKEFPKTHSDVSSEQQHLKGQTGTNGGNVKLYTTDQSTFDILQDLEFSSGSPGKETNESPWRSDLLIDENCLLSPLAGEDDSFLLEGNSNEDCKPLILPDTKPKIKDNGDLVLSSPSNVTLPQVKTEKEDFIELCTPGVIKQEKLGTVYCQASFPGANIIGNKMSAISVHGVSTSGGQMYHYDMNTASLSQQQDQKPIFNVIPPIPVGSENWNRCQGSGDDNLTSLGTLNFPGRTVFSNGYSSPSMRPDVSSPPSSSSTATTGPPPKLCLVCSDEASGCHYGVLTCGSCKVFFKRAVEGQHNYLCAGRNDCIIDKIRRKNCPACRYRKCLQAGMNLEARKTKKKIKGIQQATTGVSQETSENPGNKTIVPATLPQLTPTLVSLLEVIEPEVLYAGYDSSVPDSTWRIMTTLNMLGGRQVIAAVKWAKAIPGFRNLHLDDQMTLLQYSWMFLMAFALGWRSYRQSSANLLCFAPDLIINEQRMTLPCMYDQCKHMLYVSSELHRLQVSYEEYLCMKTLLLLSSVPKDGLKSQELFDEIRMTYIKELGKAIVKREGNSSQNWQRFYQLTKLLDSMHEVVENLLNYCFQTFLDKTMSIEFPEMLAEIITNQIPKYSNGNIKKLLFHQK


How the values were obtained:
AR = AR transactivation reporter gene assay (CAT/Luc) in prostate cancer cell lines (Example 2); format: cell-based, human
Method: 394. The human prostate cancer cell lines, LNCaP, PC-3, and DU145, were maintained in Dulbecco's minimum essential medium (DMEM) containing 5% fetal calf serum (FCS). Transfections using the calcium phosphate precipitation method and chloramphenicol acetyltransferase (CAT) and luciferase (Luc) assays were performed as previously described (Miyamoto et al. (1998) Proc. Natl. Acad. Sci. U.S.A. 95, 7379-7384; Yeh et al. (1999) Endocrine 11, 195-202; Miyamoto et al. (1998) Proc. Natl. Acad. Sci. U.S.A. 95, 11083-11088). Briefly, 1-4×10^5 cells were plated on 35-mm or 60-mm dishes 24 h before adding the precipitation mix containing a CAT or Luc reporter gene and a β-galactosidase expression plasmid (pCMV-β-gal) as an internal control for normalization of transfection efficiency. The medium was changed to phenol-red-free DMEM with 5% charcoal-stripped FCS 1 h before transfection. In each experiment, the total amount of transfected DNA per dish was maintained as a constant by addition of empty expression vector (pSG5 or pVP16, as appropriate). […] The cells were then harvested and whole cell extracts were used for CAT or Luc assay. The CAT activity was quantitated with a PhosphorImager (Molecular Dynamics). The Luc assay was determined using a Dual-Luciferase Reporter Assay System (Promega) and luminometer.

ARA54-ARA54 interactions = biological target: T1, ARA54-ARA54 interactions; assay: Mammalian two-hybrid assay of ARA54-ARA54 interaction in DU145 cells; format: cell-based
Method: 15. […] DU145 cells were transfected with 2.5 μg of GAL4-hybrid expression plasmid (pGAL0-AR (A) or pCMX-GAL4 DBD-fl-ARA54 (B)), 2.5 μg of VP16-hybrid expression plasmid (pCMX-VP16-fl-ARA54), and 2.5 μg of pG5-CAT, with or without 2.5 μg of pSG5-C′-ARA54 (C′) or pSG5-mt-ARA54 (mt). pCMX-VP16-C′-ARA54 and pCMX-VP16-mt-ARA54 were also cotransfected to test the interactions with AR (A) and fl-ARA54 (B). The total amount of DNA was adjusted to 11.0 μg with pSG5 and/or pVP16 for each transfection. The CAT activity was determined and each CAT activity is presented relative to that of lane 4 in each panel (black bars; set as 100%). Values represent the mean±SD of at least three determinations.
397. DU145 cells were transiently cotransfected with a GAL4-hybrid expression plasmid, a VP16-hybrid expression plasmid, the reporter plasmid pG5-CAT, and the pCMV-O-gal internal control plasmid. Transfections and CAT assays were performed as described above.

GR = biological target: T2, GR; assay: GR transcription activity, MMTV-CAT reporter (Example 1); format: cell-based; set-up: expressed in transfected cells; host or cells: DU145; conditions: DU145 cells
Method: 366. Human prostate cancer DU145 or PC3 cells, or human lung carcinoma cells NCI H1299 were grown in Dulbecco's minimal essential medium (DMEM) containing penicillin (25 U/ml), streptomycin (25˜g/ml), and 5% fetal calf serum (FCS). One hour before transfection, the medium was changed to DMEM with 5% charcoal-stripped FCS. Phenol red-free and serum-free media were used on the experiments employing E2 or TGF-β, respectively. A β-galactosidase expression plasmid, pCMV-β-gal, was used as an internal control for transfection efficiency.
367. Cells were transfected using the calcium phosphate technique (Yeh, et al. Molec. Endocrinol. 8:77-88, 1994). The medium was changed 24 hr posttransfection and the cells treated with either steroid hormones or hydroxyflutamide, and cultured for an additional 24 hr. Cells were harvested and assayed for CAT activity after the cell lysates were normalized by using β-galactosidaseas an internal control. Chloramphenicol acetyltransferase (CA) activity was visualized by PhosphorImager (Molecular Dynamics) and quantitated by ImageQuant software (Molecular Dynamics).

AR, sequence (P10275 whole entry, the tested form may be a part): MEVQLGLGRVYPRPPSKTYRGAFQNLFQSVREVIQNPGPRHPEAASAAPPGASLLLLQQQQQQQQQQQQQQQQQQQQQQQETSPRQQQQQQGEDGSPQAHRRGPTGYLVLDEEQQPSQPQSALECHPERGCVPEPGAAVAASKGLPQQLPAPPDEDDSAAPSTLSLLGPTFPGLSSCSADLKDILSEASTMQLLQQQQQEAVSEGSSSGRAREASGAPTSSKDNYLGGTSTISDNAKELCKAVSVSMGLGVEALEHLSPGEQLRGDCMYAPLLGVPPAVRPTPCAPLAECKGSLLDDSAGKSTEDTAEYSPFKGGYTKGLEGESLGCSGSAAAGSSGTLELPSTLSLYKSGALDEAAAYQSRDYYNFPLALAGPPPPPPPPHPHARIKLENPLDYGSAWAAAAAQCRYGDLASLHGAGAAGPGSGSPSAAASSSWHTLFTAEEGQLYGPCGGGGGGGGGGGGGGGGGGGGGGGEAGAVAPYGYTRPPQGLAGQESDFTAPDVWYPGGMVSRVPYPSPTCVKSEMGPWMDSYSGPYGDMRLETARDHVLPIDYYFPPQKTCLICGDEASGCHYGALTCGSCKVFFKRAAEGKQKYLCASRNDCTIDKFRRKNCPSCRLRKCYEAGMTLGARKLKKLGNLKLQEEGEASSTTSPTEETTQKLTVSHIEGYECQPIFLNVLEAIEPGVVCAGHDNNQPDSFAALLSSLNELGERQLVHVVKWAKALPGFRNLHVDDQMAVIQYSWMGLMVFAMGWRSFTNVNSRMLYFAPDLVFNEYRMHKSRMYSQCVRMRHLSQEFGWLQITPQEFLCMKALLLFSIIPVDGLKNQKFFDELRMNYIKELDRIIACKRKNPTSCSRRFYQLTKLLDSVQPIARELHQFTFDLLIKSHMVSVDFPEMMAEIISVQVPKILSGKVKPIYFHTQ

CAT activity of GAL4-fl-ARA54 / VP16-fl-ARA54 interaction (ARA54-ARA54 interactions) | effect on GR transcription activity (GR) | Molecule | effect on ARA55-, ARA70-, Rb-, or SRC-1-enhanced AR transactivation (AR; DU145 cells, 1 nM DHT) | effect on DHT- or HF-mediated AR transcription activity (AR; LNCaP, PC-3, DU145 cells, 1 nM DHT or 1 μM HF)
returned to the basal levels | – | C′-ARA54: C-terminal region (amino acids 361-474) of ARA54 (protein, Homo sapien, C-terminal region (amino acids 361-474) of ARA54) RNEYLQADEANKRLLDQRYGKRVIQKALEEMESKEWLEKNSKSCPCCGTPIEKLDGCNKMTCTGCMQYFCWICMGSLSRANPYKHFNDPGSPCFNRLFYAVDVDDDIWEDEVED | only marginal or slight suppressive effects | suppresses DHT- or HF-mediated AR transcription activity
– | less than 2 fold | ARA54: 54 kDa protein that interacts with AR in an androgen-dependent manner; AR coactivator (protein) MSSEDREAQEDELLALASIYDGDEFRKAESVQGGETRIYLDLPQNFKIFVSGNSNECLQNSGFEYTICFLPPLVLNFELPPDYPSSSPPSFTLSGKWLSPTQLSALCKHLDNLWEEHRGSVVLFAWMQFLKEETLAYLNIVSPFELKIGSQKKVQRRTAQASPNTELDFGGAAGSDVDQEEIVDERAVQDVESLSNLIQEILDFDQAQQIKCFNSKLFLCSICFCEKLGSECMYFLECRHVYCKACLKDYFEIQIRDGQVQCLNCPEPKCPSVATPGQVKELVEAELFARYDRLLLQSSLDLMADVVYCPRPCCQLPVMQEPGCTMGICSSCNFAFCTLCRLTYHGVSPCKVTAEKLMDLRNEYLQADEANKRLLDQRYGKRVIQKALEEMESKEWLEKNSKSCPCCGTPIEKLDGCNKMTCTGCMQYFCWICMGSLSRANPYKHFNDPGSPCFNRLFYAVDVDDDIWEDEVED | – | –
